The target in assay [1] is T1, human CD33 (human, UniProt P20138 18-364).
T1 construct: whole, on cells; also called huCD33; CD33 on HL-60, KG-1, KG-1a, U-937 cells
Kind of assay: flow cytometry titration, U-937 cells. An outline of the steps:
(§1)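 Cells titrated with CD33/CD3 2×2 T-cell engagers, detected via anti-His then FITC anti-mouse IgG on ice, with PI exclusion of dead cells. Background-subtracted mean fluorescence fit to one-site binding for KD; cross-reactivity ratio from KDs on CHO cells expressing recombinant cynomolgus or human CD33.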
A general note: A flow cytometer gives signals particle by particle.

Assay [2] deals with T1, human CD33. Nature of the assay: flow cytometry, HL-60 cells.
Assay [3] concerns the target T1, human CD33. Kind of assay: cell-based or functional assay.
The target of another assay is T2, cynomolgus CD33 (cynomolgus, UniProt A0A7N9ICR5 17-359).
T2 construct: whole, on cells; also called cynoCD33; cyno CD33
Kind of assay: ratio of KD by flow cytometry on CHO cells expressing cynomolgus CD33 vs human CD33. The protocol: Cells were incubated with 100 μL of serial dilutions of CD33/CD3 2×2 T-cell engagers. After washing three times with FACS buffer the cells were incubated with 0.1 mL of 10 μg/mL mouse monoclonal anti-His antibody in the same buffer for 45 min on ice. After a second washing cycle, the cells were incubated with 0.1 mL of 15 μg/mL FITC-conjugated goat anti-mouse IgG antibodies under the same conditions as before. As a control, cells were incubated with the anti-His IgG followed by the FITC-conjugated goat anti-mouse IgG antibodies without anti-CD33 2×2 T-cell engagers. The cells were then washed again and resuspended in 0.2 mL of FACS buffer containing 2 μg/mL propidium iodide (PI) in order to exclude dead cells. The fluorescence of 1×10⁴ living cells was measured using a Beckman-Coulter FC500 MPL flow cytometer using the MXP software (Beckman-Coulter, Krefeld, Germany) or a Millipore Guava EasyCyte flow cytometer using the Incyte software (Merck Millipore, Schwalbach, Germany). Mean fluorescence intensities of the cell samples were calculated using CXP software (Beckman-Coulter, Krefeld, Germany) or Incyte software (Merck Millipore, Schwalbach, Germany). After subtracting the fluorescence intensity values of the cells stained with the secondary and tertiary reagents alone the values were used for calculation of the KD values with the equation for one-site binding (hyperbola) of the GraphPad Prism (version 6.00 for Windows, GraphPad Software, La Jolla Calif. USA).
CD3 binding affinity and crossreactivity were evaluated in titration and flow cytometric experiments on CD3⁺ Jurkat cells (provided by Dr. Moldenhauer, DKFZ Heidelberg; human acute T-cell leukemia) and the cynomolgus CD3⁺ HSC-F cell line (JCRB, cat.:JCRB 1164). […] The KD ratio of crossreactivity was calculated using the KD values determined on the CHO cell lines expressing either recombinant human or recombinant cynomolgus antigens.

The target in assay [4] is T3, human CD3 (human, UniProt P07766 23-207; P09693 23-182; P04234 22-171; P20963 22-164).
T3 construct: whole, on cells; the description names the epsilon chain only 'in certain instances'; also called hu CD3; CD3 on T cells
Kind of assay: flow cytometry, human T-cells.

Assay [5] has as its target T1, human CD33. Kind of assay: flow cytometry titration, KG-1 cells. An outline of the steps: as §1
Assay [6] deals with T1, human CD33. Kind of assay: cell-based or functional assay. This is another data set of the same source.
The target of assay [7] is T1, human CD33. Kind of assay: flow cytometry titration, HL-60 cells. An outline of the steps:
as §1

Assay [8] has as its target T3, human CD3. Nature of the assay: flow cytometry titration, T cells (human CD3+).
Assay [9] has as its target T3, human CD3. Nature of the assay: cell-based or functional assay.
Assay [10] concerns the target T1, human CD33. Nature of the assay: cell-based or functional assay. This is another data set of the same source.
The target in assay [11] is T1, human CD33. Nature of the assay: cell-based or functional assay. The source holds these as a separate data set.
In assay [12] the target is T1, human CD33. Kind of assay: cell-based or functional assay. The source holds these as a separate data set.

Broadly, the Kd is a measure of binding affinity in units of concentration. A lower Kd goes with higher affinity.

Positions count from the first letter of the chain named. Values joined by “and” are separate entries in the source; they are usually repeats but may differ in a detail not shown here. Identical values can stand only once.

T3 sequence (P07766 23-207, chain 1 of 4): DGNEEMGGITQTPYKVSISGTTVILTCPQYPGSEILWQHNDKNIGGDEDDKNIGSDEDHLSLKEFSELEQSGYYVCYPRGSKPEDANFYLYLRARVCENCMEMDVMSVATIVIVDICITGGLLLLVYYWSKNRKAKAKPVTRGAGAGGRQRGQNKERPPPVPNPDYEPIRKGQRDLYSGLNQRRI
T3 sequence (P09693 23-182, chain 2 of 4): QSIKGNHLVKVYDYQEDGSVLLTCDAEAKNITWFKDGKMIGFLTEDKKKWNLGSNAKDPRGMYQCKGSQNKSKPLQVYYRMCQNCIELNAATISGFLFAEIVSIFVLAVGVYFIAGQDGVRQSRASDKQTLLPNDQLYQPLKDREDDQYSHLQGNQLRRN
T3 sequence (P04234 22-171, chain 3 of 4): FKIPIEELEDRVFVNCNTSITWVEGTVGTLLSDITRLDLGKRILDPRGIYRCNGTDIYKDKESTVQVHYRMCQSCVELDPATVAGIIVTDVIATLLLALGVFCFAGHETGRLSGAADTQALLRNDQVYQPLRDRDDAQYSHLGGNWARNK
T3 sequence (P20963 22-164, chain 4 of 4): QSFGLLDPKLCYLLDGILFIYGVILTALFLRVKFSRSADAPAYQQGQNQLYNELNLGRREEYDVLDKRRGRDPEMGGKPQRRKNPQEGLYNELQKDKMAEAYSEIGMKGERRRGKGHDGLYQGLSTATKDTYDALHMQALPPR
T1 sequence (P20138 18-364): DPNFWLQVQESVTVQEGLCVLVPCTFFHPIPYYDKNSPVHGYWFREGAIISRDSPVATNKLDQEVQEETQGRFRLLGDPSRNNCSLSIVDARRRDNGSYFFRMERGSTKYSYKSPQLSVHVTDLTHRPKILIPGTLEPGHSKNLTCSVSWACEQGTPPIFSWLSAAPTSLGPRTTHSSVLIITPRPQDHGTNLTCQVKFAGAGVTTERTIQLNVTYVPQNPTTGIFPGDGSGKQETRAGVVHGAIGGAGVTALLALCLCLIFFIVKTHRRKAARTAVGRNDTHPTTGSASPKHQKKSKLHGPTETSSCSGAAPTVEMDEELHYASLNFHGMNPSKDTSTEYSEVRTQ

B1: CD33/CD3 2×2 T-cell engager 19 (bispecific antibody)
chain: DIQMTQSPSSLSASVGDRVTITCRSSTGAVTTSNYANWVQQKPGKAPKALIGGTNKRAPGVPSRFSGSLIGDKATLTISSLQPEDFATYYCALWYSNLWVFGQGTKVEIKGGSGGSQVQLVQSGAEVKKPGASVKVSCKASGYTFTSYYMHWVRQAPGQGLEWMGIINPSGGSTSYAQKFQGRVTMTRDTSTSTVYMELSSLRSEDTAVYYCARDVVPAAIDYYGMDVWGQGTTVTVSSGGSGQSVLTQPPSASGTPGQRVTISCSGSSSNIGSNTVNWYQQLPGTAPKLLIYSDNQRPSGVPDRFSGSKSGSSASLAISGLQSDDEADYYCATWDDSLNGAVFGGGTKLTVLGGSGGSEVQLVESGGGLVQPGGSLRLSCAASGFTFSTYAMNWVRQAPGKGLEWVGRIRSKYNNYATYYADSVKDRFTISRDDSKNSLYLQMNSLKTEDTAVYYCARHGNFGNSYVSYFAYWGQGTLVTVSSAAAGSHHHHHH
notes: Non-covalent homodimer
B1: the Kd was determined as 5400 pM in the assay with human CD33 [1]; 2800 pM with human CD33 [2]; 6300 pM with human CD3 [4]; 3600 pM with human CD33 [5]; 2800 pM with human CD33 [7]; 6300 pM with human CD3 [8]. In addition, the “EC50 on HL-60 (cytotoxicity)” value with human CD33 [3] stood at 5.7 pM. In the assay with cynomolgus CD33, the “KD ratio cynoCD33/huCD33” value was found to be 37.3. Further, the “IC50, lysis of KG-1 cells with human T cells” value (“IC50 … with human T cells” for short) in the assay with human CD33 [6] was roughly 5 pM. In addition, the “CD25 Induction EC50” value with human CD3 [9] is 9 pM. Also, in the assay with human CD3 [9], the “CD69 Induction EC50” value was 5 pM. Further, the “T cell Proliferation in PBMC EC50” value in the assay with human CD3 [9] worked out at 6 pM.

B2: CD33/CD3 2×2 T-cell engager 22 (bispecific antibody)
chain: DIQMTQSPSSLSASVGDRVTITCRSSTGAVTTSNYANWVQQKPGKAPKALIGGTNKRAPGVPSRFSGSLIGDKATLTISSLQPEDFATYYCALWYSNLWVFGQGTKVEIKGGSGGSQVQLVQSGAEVKKPGSSVKVSCKASGGTFSSYGISWVRQAPGQGLEWMGGIIPIFGSAHYAQKFQGRVTITADESTSTAYMELSSLRSEDTAVYYCAREYYYDSSEWAFDIWGQGTLVTVSSGGSGQSVLTQPPSASGTPGQRVTISCSGSSSNIGSNTVKWYQQLPGTAPKLLIYSNNQRSSGVPDRFSGSKSGSSASLAISGLQSEDEADYYCAAWDDSLNGYVFGGGTKLTVLGGSGGSEVQLVESGGGLVQPGGSLRLSCAASGFTFSTYAMNWVRQAPGKGLEWVGRIRSKYNNYATYYADSVKDRFTISRDDSKNSLYLQMNSLKTEDTAVYYCARHGNFGNSYVSYFAYWGQGTLVTVSSAAAGSHHHHHH
notes: Non-covalent homodimer
On to B2, for which the Kd with human CD33 [1] turned out to be 8600 pM; with human CD33 [2], 700 pM; with human CD3 [4] it was 4100 pM; with human CD33 [5] it was 2000 pM; in the assay with human CD33 [7] it was 700 pM; with human CD3 [8], 4100 pM. The “EC50 on HL-60 (cytotoxicity)” value with human CD33 [3] is 3.2 pM. The “KD ratio cynoCD33/huCD33” value with cynomolgus CD33 was determined as 0.6. Further, the “CD25 Induction EC50” value with human CD3 [9] came out at 10 pM. For the same molecule, the “CD69 Induction EC50” value with human CD3 [9] came to 4 pM. Also, the “T cell Proliferation in PBMC EC50” value in the assay with human CD3 [9] is 7 pM.

B3: CD33/CD3 2×2 T-cell engager 12 (bispecific antibody)
chain: DIQMTQSPSSLSASVGDRVTITCRSSTGAVTTSNYANWVQQKPGKAPKALIGGTNKRAPGVPSRFSGSLIGDKATLTISSLQPEDFATYYCALWYSNLWVFGQGTKVEIKGGSGGSQVQLVQSGAEVKKPGASVKVSCKASGYTFTSYDINWVRQAPGQGLEWMGWMNPNSGNTGFAQKFQGRVTMTRDTSTSTVYMELSSLRSEDTAVYYCARDRAVTDYYYGMDVWGQGTLVTVSSGGSGQSVLTQPPSASGTPGQRVTISCSGSRSNIGSNTVNWYQQLPGTAPKLLIYGNNQRPSGVPDRFSGSKSGTSASLAISGLQSEDEADYYCATWDDSLIGWVFGGGTKLTVLGGSGGSEVQLVESGGGLVQPGGSLRLSCAASGFTFSTYAMNWVRQAPGKGLEWVGRIRSKYNNYATYYADSVKDRFTISRDDSKNSLYLQMNSLKTEDTAVYYCARHGNFGNSYVSYFAYWGQGTLVTVSSAAAGSHHHHHH
notes: Non-covalent homodimer; also called tandom diabody 12
B3 returned a Kd with human CD33 [1] of 500 pM. The same molecule had a Kd with human CD33 [2] of 300 pM. Besides, in the assay with human CD33 [3], the “EC50 on HL-60 (cytotoxicity)” value is 1.3 pM. In the assay with human CD33 [10], the “EC50, cytotoxicity on HL-60” value is 1.3 pM and 137 pg/mL; the “EC50, cytotoxicity on KG-1” value is 1.2 pM and 126 pg/mL; the “EC50, cytotoxicity on U-937” value was 0.8 pM and 84 pg/mL; the “EC50, cytotoxicity, mean of HL-60, U-937, KG-1” value is 1.1 pM and 116 pg/mL. In the assay with human CD3 [4], this molecule showed a Kd of 1500 pM. The molecule also displayed a Kd in the assay with human CD33 [5] of 900 pM. For the same molecule, the “IC50 … with human T cells” value with human CD33 [6] was roughly 0.01 pM. Besides, in the assay with human CD33 [7], the affinity, expressed as Kd, was 300 pM. In addition, the Kd with human CD3 [8] worked out at 1500 pM. Also, in the assay with human CD33 [11], the “EC50 (mean), redirected lysis of BV-173 cells” value was determined as 1.4 pM; the “EC50 (mean), redirected lysis of CHO-CD33 cells” value worked out at 11.8 pM; the “EC50 (mean), redirected lysis of HL-60 cells” value came to 1.4 pM; the “EC50 (mean), redirected lysis of K562 cells” value stood at 4.5 pM. Moreover, in the assay with human CD33 [11], the “EC50 (mean), redirected lysis of KASUMI-1 cells” value was found to be 1.3 pM; the “EC50 (mean), redirected lysis of KG-1 cells” value was 1 pM; the “EC50 (mean), redirected lysis of RPMI-8226 cells” value came to 14 pM; the “EC50 (mean), redirected lysis of THP-1 cells” value was determined as 1.9 pM. Besides, the “EC50 (mean), redirected lysis of U-937 cells” value with human CD33 [11] amounted to 0.9 pM. Also, in the assay with human CD3 [9], the “CD25 Induction EC50” value amounted to 6 pM, the “CD69 Induction EC50” value was found to be 3 pM and the “T cell Proliferation in PBMC EC50” value came to 2 pM.

B4: CD33/CD3 2×2 T-cell engager 16 (bispecific antibody)
chain: B3 chain with V218N, Y222S, Y223L
notes: Non-covalent homodimer; also called AMV564; AMV 564
In turn, B4 yielded a Kd with human CD33 [1] of 300 pM. Moreover, binding in the assay with human CD33 [2] was put at a Kd of 300 pM. In the assay with human CD33 [3], the “EC50 on HL-60 (cytotoxicity)” value is 1.5 pM. Also, in the assay with human CD33 [10], the “EC50, cytotoxicity on HL-60” value was 1.5 pM and 158 pg/mL; the “EC50, cytotoxicity on KG-1” value is 1.8 pM and 189 pg/mL; the “EC50, cytotoxicity on U-937” value was 1.9 pM and 200 pg/mL; the “EC50, cytotoxicity, mean of HL-60, U-937, KG-1” value was 1.7 pM and 179 pg/mL. Moreover, binding with human CD3 [4] was characterised by a dissociation constant (Kd) of 5100 pM. Further, the Kd with human CD33 [5] amounted to 200 pM. In addition, in the assay with human CD33 [6], the “IC50, lysis of KG-1 cells (separate experiment)” value came to 5 pM and the “IC50 … with human T cells” value was roughly 0.5 pM. Binding in the assay with human CD33 [7] was put at a Kd of 300 pM. In the assay with human CD33 [12], the “EC50, calcein-release lysis of HL-60, 30 min incubation” value is 4.8 pM; the “EC50, calcein-release lysis of HL-60, 60 min incubation” value was 2.5 pM; the “EC50, calcein-release lysis of HL-60, 120 min incubation” value is 1.6 pM; the “EC50, calcein-release lysis of HL-60, 180 min incubation” value was 1.6 pM. In addition, in the assay with human CD33 [12], the “EC50, calcein-release lysis of HL-60, 240 min incubation” value was 1.5 pM and the “EC50, calcein-release lysis of HL-60, 300 min incubation” value is 1.6 pM. This molecule also displayed a Kd with human CD3 [8] of 2100 pM. Also, in the assay with human CD33 [11], the “EC50 (mean), redirected lysis of BV-173 cells” value turned out to be 3.2 pM; the “EC50 (mean), redirected lysis of CHO-CD33 cells” value amounted to 24 pM; the “EC50 (mean), redirected lysis of HL-60 cells” value turned out to be 1.6 pM; the “EC50 (mean), redirected lysis of K562 cells” value is 4.8 pM. In the assay with human CD33 [11], the “EC50 (mean), redirected lysis of KASUMI-1 cells” value stood at 2.4 pM; the “EC50 (mean), redirected lysis of KG-1 cells” value came to 1.9 pM; the “EC50 (mean), redirected lysis of RPMI-8226 cells” value is 2.8 pM; the “EC50 (mean), redirected lysis of THP-1 cells” value came to 6 pM. Moreover, the “EC50 (mean), redirected lysis of U-937 cells” value with human CD33 [11] came out at 1.3 pM. Also, in the assay with human CD3 [9], the “CD25 Induction EC50” value was 1 pM, the “CD69 Induction EC50” value stood at 2 pM and the “T cell Proliferation in PBMC EC50” value was found to be 3 pM.
